Where a chain is given by its changes, count along the chain named.

Drawing on article PMC8573201, this text covers β-arrestin 2 recruitment in HEK293 cells (BRET between Rluc8-Arrestin-3-Sp1 and mem-linker-citrine-SH3, GRK2 co-expressed) on stimulation with GIP(1-42), Emax, β-arrestin 2 recruitment in HEK293 cells (BRET, GRK2 co-expressed), pEC50 of GIP(1-42) and β-arrestin 2 recruitment in HEK293 cells (BRET, GRK2 co-expressed), EC50 of GIP(1-42) for one substance.

Test [1] has as its target T1, human GIPR variant E288G (human) (UniProt P48546).
T1 sequence: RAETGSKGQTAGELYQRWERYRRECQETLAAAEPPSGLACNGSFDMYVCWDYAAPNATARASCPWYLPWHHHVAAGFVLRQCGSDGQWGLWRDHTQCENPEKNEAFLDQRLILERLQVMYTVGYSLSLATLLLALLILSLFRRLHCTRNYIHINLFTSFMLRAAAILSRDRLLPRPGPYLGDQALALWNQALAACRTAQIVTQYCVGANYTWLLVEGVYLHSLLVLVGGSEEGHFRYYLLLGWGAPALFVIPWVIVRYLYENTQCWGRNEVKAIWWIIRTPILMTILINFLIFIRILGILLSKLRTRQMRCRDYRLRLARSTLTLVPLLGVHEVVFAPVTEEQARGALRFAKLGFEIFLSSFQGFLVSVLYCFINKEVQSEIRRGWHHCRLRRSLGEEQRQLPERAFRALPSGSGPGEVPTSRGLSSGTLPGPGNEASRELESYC

In test [2] the target is T2, human GIPR double mutant R190Q-E288G (human) (UniProt P48546).
T2 sequence: T1 sequence with R169Q

The target of test [3] is T3, wild-type human GIP receptor (GIPR) (human) (UniProt P48546).
T3 sequence: T1 sequence with G267E

The target of test [4] is T4, human GIPR variant R190Q (human) (UniProt P48546).
T4 sequence: T1 sequence with R169Q, G267E

Test [5] concerns the target T1, human GIPR variant E288G (human). This is another data set of the same source.
Test [6] concerns the target T2, human GIPR double mutant R190Q-E288G (human). This is another data set of the same source.
For test [7], the target named is T3, wild-type human GIP receptor (GIPR) (human). This is another data set of the same source.
Test [8] addresses T4, human GIPR variant R190Q (human). This is another data set of the same source.
[9] abbreviates: scale: negative logarithm of molar concentration.

Sequence of Rluc8-Arrestin-3-Sp1 (P32121 whole entry): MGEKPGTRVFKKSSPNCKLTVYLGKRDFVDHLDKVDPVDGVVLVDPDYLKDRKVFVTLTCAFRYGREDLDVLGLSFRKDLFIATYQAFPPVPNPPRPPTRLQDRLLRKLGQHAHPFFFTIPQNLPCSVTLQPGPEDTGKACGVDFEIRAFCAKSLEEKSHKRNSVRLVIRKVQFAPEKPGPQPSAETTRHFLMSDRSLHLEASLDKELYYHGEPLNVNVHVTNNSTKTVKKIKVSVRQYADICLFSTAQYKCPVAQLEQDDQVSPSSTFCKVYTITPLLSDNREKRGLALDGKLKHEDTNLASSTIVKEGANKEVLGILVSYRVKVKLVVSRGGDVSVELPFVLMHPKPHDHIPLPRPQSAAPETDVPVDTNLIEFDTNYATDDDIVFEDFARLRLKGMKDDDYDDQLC

As to “Rluc8-Arrestin-3-Sp1 (from UniProt P32121 1-409) (natural protein)”, the β-arrestin 2 recruitment in HEK293 cells (BRET between Rluc8-Arrestin-3-Sp1 and mem-linker-citrine-SH3, GRK2 co-expressed) on stimulation with GIP(1-42), Emax was 8.6 % of WT in test [1], 12 % of WT in test [2], 98 % of WT in test [3] and 9 % of WT in test [4]. For the same substance, the β-arrestin 2 recruitment in HEK293 cells (BRET, GRK2 co-expressed), pEC50 of GIP(1-42) in test [1] (setting [9]) was 9.6; in test [2] (setting [9]), 8; in test [3] (setting [9]) it was 9.1; in test [4] (setting [9]) it was 9.1. Further, the β-arrestin 2 recruitment in HEK293 cells (BRET, GRK2 co-expressed), EC50 of GIP(1-42) stood at 0.23 nM in test [5], 11 nM in test [6], 0.88 nM in test [7] and 0.76 nM in test [8].
